Laboratory results taken from patent US8735085B2, “Method for diagnosing diseases using a protein or degradation product based on half-life” (Becton, Dickinson and Company, priority 2007, dated 2014).
Read-outs that look alike come from different tables or passages of the source. No end group written: not given here.

Legend:
[1] = Sequential multi-step reaction (SMSR) kinetic modeling of FPA and its fragments in pooled heparin plasma; assay type: in vitro ADME, human; conditions: for incubation time at which the truncated daughter peptide was detected: AQUA FPA spiked in heparinized plasma; for apparent rate constants of the sequential reactions (k1-k5, truncation of the peptide) / half-lives: heparin plasma pooled from three healthy individuals; for apparent rate constants of the sequential reactions (k1-k5, truncation of the peptide): first-order SMSR simulation; for half-lives: four replicates, first-order SMSR; for T1/2 (h) in Heparin: SMSR model
Procedure: Determining half-lives of the degradation products of the peptide, however, entails further modeling and calculations. For examples, sequential multi-step reaction (SMSR) model may be used. Particularly, the half-life of each daughter peptide (e.g., FPA-1, FPA-2, FPA-3, etc.) is determined using information related to one or more of its parent peptides as well as the measured behavior of the daughter peptides creation and further degradation. Accordingly, as represented below, the peptide FPA, referred to as “a” and having a kinetic rate constant k1, is used to determine the half-life of […], referred to as “b” and having a kinetic rate constant k2, which is used to determine the half-life of FPA-2, referred to as “c” and having a kinetic rate constant of k3, and so on.
Accordingly, kj is the kinetic rate constant of step reaction j. Ii is the measured signal (i.e., the peak intensity in MALDI-TOF MS) of peptide i. For example, measured intensities of each of the degradation products of the peptide over a 4 hour time span may be seen in FIG. 3. The peak intensity of, for example, FPA-4, occurs at 2 hours, where is measures 1216.670 m/z. A0 is the initial peak intensity of the parent peptide at time 0. Since Ii=K′iCi+I0, and I0=0 after baseline subtraction, then Ii=K′iCi or Ci=KiIi (1), where
Such calculations are performed for different points in time (i.e., different values of t), so as to plot the varying intensities of each degradation product against the reaction time, as shown in FIG. 4b. The rate constant of each step reaction, kj, can be computed by simulation of the equations (2b)-(6b). Then, the half-lives for each degradation product may be calculated by the equation t1/2=Ln(2)/kj.
For determining kinetic rate constants in a complex sequential reaction observed in this study, analytical solutions were derived from, a first order sequential multi-step reaction (SMSR), as explained above in the discussion concerning equations (1)-(6), (2a)-(6a), and (2b)-(6b). MATLAB (Version 7.0, Mathworks) was employed to numerically simulate this model with the experimental data, and reaction rate constants were then determined in the sequential pattern following the chain reaction sequences. The modeling process was optimized to achieve a best fit to R^2 (goodness-of-fit) calculation.
The observed decrease of the spiked AQUA FPA peptide is caused by the intrinsic amino-peptidase activity (9, 15, 20, 33) as its six fragments, sequentially truncated from the amino terminus, can be detected during the incubation (FIG. 3, FIG. 8). The process was easily observed in heparinized plasma, since the relative instability in this sample facilitated detection of the various truncated peptides within a reasonable experimental time frame (FIG. 3). […] During further incubation, smaller daughter peptides were detected: FPA-3 at 30 min, FPA-4 at one hour, and both FPA-5 and FPA-6 at two hours (FIG. 3, FIG. 8). None of these peptides was detected after eight-hour incubation.
The measurement of the degradation products was sufficiently unambiguous as to allow definition of a kinetic model of the degradation process. To determine the rate constants of the sequential reaction, the fragments of FPA: FPA-1, FPA-2, FPA-3, FPA-4 (FIG. 3), were measured in heparin plasma pooled from three healthy individuals with four replicates, and the average of peak intensities were modeled according to a first-order SMSR (FIG. 4). Simulation of the peak intensities of time-course MS (FIG. 4B) gave apparent rate constants of the sequential reactions: k1=2.1, k2=0.29, k3=1.96, k4=1.6, and k5=0.04 h^−1 for the first five step truncations (FIG. 4A), with goodness-of-fit (R^2) of 0.84, 0.78, 0.77, 0.87, and 0.76, respectively. Accordingly, the half-lives of FPA, FPA-1, FPA-2, FPA-3, and FPA-4 are 0.29, 2.1, 0.31, 0.38, and 15.2 hours, respectively (FIG. 4A). […]

[2] = Time-course stability of spiked isotope-labeled (AQUA) peptides in serum and plasma samples, MALDI-TOF MS, first-order fit; assay type: in vitro ADME, human; conditions: for T1/2 (h) Citrate / T1/2 (h) EDTA / T1/2 (h) Heparin: plasma
Source text: Methods of determining the half-lives of parent peptides may be determined by a process, which includes by example first spiking the peptide into one or more collection vehicles such as blood collection tubes comprising samples of biological fluid. In some embodiments, the collection vehicle is a swab. As described in an example disclosed herein, commercially available blood collection tubes sampled for determining half-lives included P100, EDTA, citrate, or heparin blood collection containers. The peak intensities of the peptide in each sample are measured at various points in time. […] Accordingly, a line may be constructed for each sample. The slope of the line (−kobs), representing the kinetic rate of the first-order degradation, may be used to compute a half-life value. That is, a kinetic rate constant can be determined by fitting the data with: Ln(I)=−kobs t+C, where I is the peak intensity, or the peak area, t is the incubation time period in the study, C is a constant, and kobs is the observed (or apparent) rate constant. The half-life of the peptide is determined by t1/2=Ln(2)/kobs.
A direct test for stability of a peptide biomarker in a collected blood sample was carried out by monitoring its change during a time-course incubation. It was discovered that the spiked peptides themselves are subject to preanalytical degradation, and thus the spiked peptides became our focus for studying the relative instability of peptides in various blood samples. The stability of AQUA FPA was tested by adding it into either a serum or plasma sample (either BD P100, EDTA, citrate, or heparin plasma) collected from a single venipuncture, or a pooled serum or plasma sample from three healthy individuals. After the spiked sample was incubated for specified periods of time, the peptides were measured by MALDI-TOF MS.
Human blood from healthy individuals was directly drawn into evacuated tubes to obtain serum and plasma samples, as described previously (20). Briefly, serum tubes (BD product #366430) were placed at room temperature (r.t., approx. 24° C.) to clot for 60 min after the collection of the blood, and then centrifuged at 2,500×g for 15 min. at room temperature. Plasma tubes, including citrate tube (BD product #369714), heparin tube (BD product #367886), EDTA tube (BD product #367525), and BD P100 tube (BD product #366456), were spun immediately (within 10 min. after blood was drawn), for 15 min at 2,500×g, and at room temperature to minimize the handling condition and to prevent possible platelet activation. Both plasma and serum samples were pipetted out of the blood-collection tubes into Eppendorf tubes and were frozen within 15 minutes at −80° C. until use. With these optimized handling processes, full acquisition and processing time was minimized to approximately 30 minutes for plasma and 90 minutes for serum.
Isotopically labeled peptides were purchased from Sigma-Genosys (The Woodlands, Tex.). All peptides were synthesized with one stable isotopic amino acid residue, either L-Arginine-13C6 15N4, or L-Phenylalanine-13C9 15N1, with mass of 10 higher than its natural counterpart. The quality of each peptide was verified by HPLC, MALDI-TOF MS (FIG. 6), and amino acid analysis by the vendor with purity higher than 98%. […] The peptides were diluted with relevant solvents to make stocks of 400 fmol/μL for spiking experiments.
The frozen serum and plasma were thawed (once only) in a room temperature water bath for approximately 5 minutes, in order to minimize the dwell time by temperature exposure of the samples. Soluble AQUA peptide (50 μL in water) was spiked into a thawed serum or plasma sample (450 μL), resulting in a final concentration of 40 fmol/μL. The samples were incubated at room temperature. A 45-μL aliquot was withdrawn at each specified time, and quenched by adding 5 μL of 2% TFA solution. […]

Row | Substance | incubation time at which the truncated daughter peptide was detected [1] | peptidase-induced degradation of isotopic labeled peptide [2] | apparent rate constants of the sequential reactions (k1-k5, truncation of the peptide) [1] [h⁻¹] | half-lives [1] [h] | T1/2 (h) in Heparin ([1]; heparin plasma) [h] | further results
1 | DFLAEGGGVR (listed as Homo sapiens) [FPA-6] | at two hours | – | – | – | – | –
2 | RPPGFSPFR [bradykinin] | – | – | – | – | – | peptidase-induced degradation of isotopic labeled peptide ([2]; blood samples, BNP, GLP-1, bradykinin data not shown): instability has been observed
3 | NGFKSHALQLNNRQIR-OH [C4, NGFKSHALQLNNRQIR] | – | instability has been observed | – | – | – | –
4 | ADSGEGDFLAEGGGVR (listed as Homo sapiens) [FPA] | – | – | 2.1 | 0.29 | 0.29 | detectable up until a period of time after collection [2]: 12 to 48 h; detection of peak after incubation [2]: still easily detected at 48 hours; time until undetectable after collection [2]: undetectable in less than two hours; T1/2 (h) Citrate ([2]; human): <0.1 h; T1/2 (h) EDTA ([2]; human): 3.51 ± 0.05 h; T1/2 (h) Heparin ([2]; human): 0.55 ± 0.02 h; T1/2 (h) Serum ([2]; human, serum): 0.30 ± 0.01 h; half-life in serum (too short to be measured) ([2]; human, serum): less than 15 min.
5 | GLP-1: glucagon-like peptide-1 | – | instability has been observed | – | – | – | –
6 | DSGEGDFLAEGGGVR (listed as Homo sapiens) [FPA-1] | Time 0 | – | 0.29 | 2.1 | 2.1 | enhanced half-life compared to the parental FPA ([1]; heparin plasma): 7 fold
7 | SGEGDFLAEGGGVR (listed as Homo sapiens) [FPA-2] | Time 0 | – | 1.96 | 0.31 | 0.31 | –
8 | SSKITHRIHWESASLLR (listed as Homo sapiens) [C3f] | – | instability has been observed | – | – | – | T1/2 (h) Citrate ([2]; human): 0.039 ± 0.01 h; T1/2 (h) EDTA ([2]; human): 0.082 ± 0.01 h; T1/2 (h) Heparin ([2]; human): 0.075 ± 0.01 h; T1/2 (h) Serum ([2]; human, serum): 0.079 ± 0.01 h
9 | EGDFLAEGGGVR (listed as Homo sapiens) [FPA-4] | at one hour | – | 0.04 | 15.2 | 15.2 | enhanced half-life compared to the parental FPA ([1]; heparin plasma): 52 fold; time at which the peak intensity occurs ([1]; heparin plasma, 4 hour time span, FIG. 3): 2 h
10 | GDFLAEGGGVR (listed as Homo sapiens) [FPA-5] | at two hours | – | – | – | – | –
11 | GEGDFLAEGGGVR (listed as Homo sapiens) [FPA-3] | at 30 min | – | 1.6 | 0.38 | 0.38 | –
12 | BNP: brain natriuretic peptide | – | instability has been observed | – | – | – | –
